The test concerns the target ROR2 mutant with the deletion of the d-Kringle region, flag-tagged (B4) (human, UniProt Q01974 34-943, limits assumed). Description: western blot of lysate of transfected 293T cells. From the text:
In order to find the epitope bound by the B16 chimeric antibody, flag-tagged mutant plasmids (B1-B8) from different regions of the ROR2 protein were constructed (The Flag tag is a polypeptide fragment composed of eight hydrophilic amino acids […], which can be fused with proteins without occupying protein epitopes or structural domains, avoiding affecting the function, secretion, and transport properties of the protein. The flag tag is used to mark the target protein, if the tag is expressed, the target protein will also be expressed). The plasmid used is pcDNA3.0 plasmid. The full-length sequence of human-derived ROR2 protein includes SP region, Ig-like region, CRD region, Kringle region, Kinase region, S/T1 region, Pro region and S/T2 region. Each part and the corresponding function can refer to Debebe Z, Rathmell W K. Ror2 as a Therapeutic Target in Cancer [J]. Pharmacology & Therapeutics, 2015, 150:143-148. […]
After 48 hours of expression, the cells transfected with mutant plasmids in different regions of ROR2 were lysed. By western blot, the expression of ROR2 protein was detected with B16 chimeric antibody, Flag antibody and Santa Cruz's ROR2 antibody (Cat. No.: sc-374174).

Sequence of ROR2 mutant with the deletion of the d-Kringle region, flag-tagged (B4) (Q01974 other isoform, or with tags, fused parts or gaps mutant limits assumed): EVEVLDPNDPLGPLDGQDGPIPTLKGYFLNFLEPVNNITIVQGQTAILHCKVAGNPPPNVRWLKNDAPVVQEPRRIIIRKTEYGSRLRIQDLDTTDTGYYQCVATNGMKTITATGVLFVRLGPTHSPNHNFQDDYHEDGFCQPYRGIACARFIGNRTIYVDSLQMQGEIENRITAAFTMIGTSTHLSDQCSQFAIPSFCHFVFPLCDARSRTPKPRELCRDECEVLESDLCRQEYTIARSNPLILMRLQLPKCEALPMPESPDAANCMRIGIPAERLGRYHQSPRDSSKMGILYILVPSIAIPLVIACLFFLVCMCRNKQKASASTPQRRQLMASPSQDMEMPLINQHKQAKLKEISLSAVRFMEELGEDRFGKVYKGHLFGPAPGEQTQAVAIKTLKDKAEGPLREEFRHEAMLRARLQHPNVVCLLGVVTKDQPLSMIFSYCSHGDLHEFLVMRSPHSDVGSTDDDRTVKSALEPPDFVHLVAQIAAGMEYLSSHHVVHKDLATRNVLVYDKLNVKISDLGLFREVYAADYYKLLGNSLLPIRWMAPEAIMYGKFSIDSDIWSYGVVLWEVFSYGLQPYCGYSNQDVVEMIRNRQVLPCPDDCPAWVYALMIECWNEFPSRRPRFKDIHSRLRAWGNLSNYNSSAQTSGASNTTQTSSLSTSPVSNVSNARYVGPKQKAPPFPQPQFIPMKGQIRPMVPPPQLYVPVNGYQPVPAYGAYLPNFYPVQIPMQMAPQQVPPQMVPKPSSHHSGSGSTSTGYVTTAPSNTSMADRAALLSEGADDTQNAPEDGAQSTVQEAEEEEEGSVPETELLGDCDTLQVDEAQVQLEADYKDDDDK

B1: B16 chimeric antibody (antibody, human IgG1, kappa, V domains shown)
VH: QLQLQQSGPELVKPGASVRMSCKAAGYTFTSYLMHWVKQRPGQDLEWIGYINPYNDGTKYNEKFKDKATLTSDKSSSTVYMELSSLTSEDSAVYYCARSDVYYGVRFAYWGQGTLVTVSA
VL: DIVLTQSPAIMSASPGEKVTMTCSASSSVTYTYWYQQKPGSSPRLLIYDTSNLASGVPVRFSGSGSGTSYSLTISRMEAEDAATYYCQQWSSYPFTFGSGTKLEIKR
notes: also called anti-ROR2 monoclonal antibody B16 chimeric antibody; B16 antibody
On to B1, for which the binding result was “no binding”.

The record behind these values is patent US20210380688A1 (SHENZHEN UNIVERSITY, published 2021).
